Reference: US20160138094, “Direct, Programmable Detection of Epigenetic DNA Cytosine Modifications using TAL Effectors” (UNIVERSITÄt KONSTANZ, published 2016)

Assays:
[1] = molecular target: T1, TALE_97 (HD at repeat 5 opposite C6) (Xanthomonas axonopodis pv. citri …, UniProt B2SU53); assay: inhibition; inhibition of Klenow exo- primer extension, MgCl2, room temperature; conditions: tags: N-terminal thioredoxin and S-tag, C-terminal His6; label: 5'-32P on primer; 5' overhang template with primer duplex at template 3' end
Method: Templates as shown in FIG. 2 (SEQ ID NOs: 9 to 14) and primer p97_rev (SEQ ID NO: 15; 5′-³²P-end labeled as above) were diluted from 5× stocks (500 nM and 166.5 nM, respectively) into 6 μL Hybridization buffer (40 mM Tris-HCl (pH 8.0), 100 mM NaCl, 10 mM MgCl₂, 0.2 mg/ml BSA, 10% glycerol) to final concentrations of 100 nM and 33.3 nM and hybridized by incubating at 95° C. for 5 min and subsequently at room temperature for 30 min. TALE proteins with various RVDs at position 5 were added in 6 μL TALE storage buffer (200 mM NaCl, 20 mM Tris-HCl (pH 7.5), 1 mM DTT, 10% glycerol) at varying concentrations and mixtures were incubated at room temperature for 30 min. 12 μL of a mixture of 25 mU Klenow Fragment of E. coli DNA polymerase I (3′-5′-exo⁻, New England Biolabs) and 200 μM of each dNTP in Binding buffer (30 mM Tris-HCl (pH 8.0), 150 mM NaCl, 5 mM MgCl₂, 0.1 mg/ml BSA, 0.5 mM DTT, 7.5% glycerol) were added, resulting in final concentrations of 8.325 nM and 25 nM for primer and template, respectively. These mixtures were incubated at room temperature for additional 15 min. 12 μL of PAGE loading buffer (80% formamide, 2 mM EDTA) were added, the mixtures were incubated at 95° C. for 5 min and cooled to 4° C. […] Gel was dried and data recorded on a phosphorimager. […]

[2] = molecular target: T1, TALE_97 (HD at repeat 5 opposite C6); assay: EMSA; Tris, NaCl, MgCl2, salmon sperm DNA, room temperature; conditions: tags: N-terminal thioredoxin and S-tag, C-terminal His6; label: 5'-32P on reverse strand
Excerpt: Oligonucleotides 97_C2/5/6/11/12/14 mC_rev (SEQ ID NO: 5) and 97_T3/4/8/9/10/16 mC_rev (SEQ ID NO: 8) were 5′-³²P-end labeled using γ-³²P-ATP and T4 polynucleotide kinase (Fermentas) and purified using a G-25 gel filtration column (GE Healthcare). Oligonucleotides were hybridized pairwise (97/97_C2/5/6/11/12/14 mC_rev (SEQ ID NO: 3/SEQ ID NO: 5); 97_C2/5/6/11/12/14 mC/97_C2/5/6/11/12/14 mC_rev (SEQ ID NO: 4/SEQ ID NO: 5); 97_T3/4/8/9/10/16 C/97_T3/4/8/9/10/16 mC_rev (SEQ ID NO: 6/SEQ ID NO: 8); 97_T3/4/8/9/10/16 mC/97_T3/4/8/9/10/16 mC_rev (SEQ ID NO: 7/SEQ ID NO: 8)) at a concentration of 12.5 nM, respectively, by incubating at 95° C. for 5 min and subsequently at room temperature for 30 min in Hybridization buffer (40 mM Tris-HCl (pH=8.0), 100 mM NaCl, 10 mM MgCl₂, 100 ng/μl salmon sperm DNA (Ambion), 0.2 mg/ml BSA, 10% glycerol). For TALE-binding, to 6 μL of the hybridized DNA duplexes, 6 μL of TALE storage buffer (20 mM Tris-HCl pH=7.5, 200 mM NaCl, 10% Glycerol, 1 mM DTT) with varying concentrations of TALE proteins were added and mixtures were incubated at room temperature for 30 min. Mixtures were loaded onto an analytical, non-denaturing PAGE-gel (0.5 mm, 50 cm length) that was run in 0.25×TB buffer at 12 W and room temperature. Gel was dried and data recorded on a phosphorimager.

B1: t97 template / p97_rev primer (dsDNA)
DNA 1: TGGATTCCCACTCTTCAGCCCCAGCGTTACAGCATCTTCAGTGGCTTCTTCCACCGTGAGCTCTTCCGTTTCCACATCC
DNA 2: GGATGTGGAAACGGAAGA
IC50 [1]: 106 nM

B2: 97 / 97_C2/5/6/11/12/14mC_rev duplex (dsDNA)
DNA 1: AGACGGCATACGATCTTCCGTTTCCACATCCACCACATCCCAACAGAGCAGCGGGAGCAGCAGTAAAGATCGGAAGAGC
DNA 2: GCTCTTCCGATCTTTACTGCTGCTCCCGCTGCTCTGTTGGGATGTGGTGGATGTGGAAACGGAAGATCGTATGCCGTCT
binding result [2]: binds
